Source: patent US20240190989A1 (BEIGENE SWITZERLAND, published 2024)
Positions count from the first letter of the chain named. Numbers in names are those of the source.

B1: BE-562 (E-muFc-BGA-5623) (bispecific antibody)
heavy: EVQLLESGGGLVQPGGSLRLSCAASGFTVSAEDVGWVRQAPGKGLEWVSAILDKGGSTYYAESVKGRFTISRDNAKNTLYLQMSSLRAEDTAVYYCARIVYHAGGGVTFDTRGQGTQVTVSSEPKSSDKTHTCPPCPAPPAAGPSVFLFPPKPKDTLMISRTPEVTCVVVDVSHEDPEVKFNWYVDGVEVHNAKTKPREEQYNSTYRVVSVLTVLHQDWLNGKEYKCKVSNKALAAPIEKTISKAKGQPREPQVYTLPPSREEMTKNQVSLTCLVKGFYPSDIAVEWESNGQPENNYKTTPPVLDSDGSFFLYSKLTVDKSRWQQGNVFSCSVMHEALHNHYTQKSLSLSPGKGGGGSQVQLVQSGAEVKKPGASVKVSCKASGYIFTSYYLHWVRQAPGQGLEWIGYINPQTGKTSYAQKFQGRVTMTRDTSTSTVYMELSSLRSEDTAVYYCAREYGNYNYPLDYWGQGTLVTVSSASTKGPSVFPLAPSSKSTSGGTAALGCLVKDYFPEPVTVSWNSGALTSGVHTFPAVLQSSGLYSLSSVVTVPSSSLGTQTYICNVNHKPSNTKVDKKVEPKSCD
light: DIQMTQSPSSLSASVGDRVTITCRASENQYGYLAWYQQKPGKVPKLLIYNYKNLVEGVPSRFSGSGSGTDFTLTISSLQPEDVATYYCQHHLGTPYTFGQGTKVEIKRTVAAPSVFIFPPSDEQLKSGTASVVCLLNNFYPREAKVQWKVDNALQSGNSQESVTEQDSKDSTYSLSSTLTLSKADYEKHKVYACEVTHQGLSSPVTKSFNRGEC
B2: BE-375 (E-IgG1-BGA-5623) (bispecific antibody)
heavy: not shown
light: B1 light
B3: BE-244 (A-(G4S)3-BGA-5623) (bispecific antibody, human IgG1, kappa)
heavy: QVQLVQSGAEVKKPGASVKVSCKASGYIFTSYYLHWVRQAPGQGLEWIGYINPQTGKTSYAQKFQGRVTMTRDTSTSTVYMELSSLRSEDTAVYYCAREYGNYNYPLDYWGQGTLVTVSSASTKGPSVFPLAPSSKSTSGGTAALGCLVKDYFPEPVTVSWNSGALTSGVHTFPAVLQSSGLYSLSSVVTVPSSSLGTQTYICNVNHKPSNTKVDKKVEPKSCDKTHTCPPCPAPPAAGPSVFLFPPKPKDTLMISRTPEVTCVVVDVSHEDPEVKFNWYVDGVEVHNAKTKPREEQYNSTYRVVSVLTVLHQDWLNGKEYKCKVSNKALAAPIEKTISKAKGQPREPQVYTLPPSREEMTKNQVSLTCLVKGFYPSDIAVEWESNGQPENNYKTTPPVLDSDGSFFLYSKLTVDKSRWQQGNVFSCSVMHEALHNHYTQKSLSLSPGKGGGGSGGGGSGGGGSEVQLLESGGGLVQPGGSLRLSCAASGFTVSAEDVGWVRQAPGKGLEWVSAILDKGGSTYYAESVKGRFTISRDNAKNTLYLQMSSLRAEDTAVYYCARIVYHAGGGVTFDTRGQGTQVTVSS
light: B1 light
B4: BE-718 (A-BGA-5623-BGA-5623) (bispecific antibody, human IgG1, kappa)
heavy: QVQLVQSGAEVKKPGASVKVSCKASGYIFTSYYLHWVRQAPGQGLEWIGYINPQTGKTSYAQKFQGRVTMTRDTSTSTVYMELSSLRSEDTAVYYCAREYGNYNYPLDYWGQGTLVTVSSASTKGPSVFPLAPSSKSTSGGTAALGCLVKDYFPEPVTVSWNSGALTSGVHTFPAVLQSSGLYSLSSVVTVPSSSLGTQTYICNVNHKPSNTKVDKKVEPKSCDKTHTCPPCPAPPAAGPSVFLFPPKPKDTLMISRTPEVTCVVVDVSHEDPEVKFNWYVDGVEVHNAKTKPREEQYNSTYRVVSVLTVLHQDWLNGKEYKCKVSNKALAAPIEKTISKAKGQPREPQVYTLPPSREEMTKNQVSLTCLVKGFYPSDIAVEWESNGQPENNYKTTPPVLDSDGSFFLYSKLTVDKSRWQQGNVFSCSVMHEALHNHYTQKSLSLSPGKGGGGSEVQLLESGGGLVQPGGSLRLSCAASGFTVSAEDVGWVRQAPGKGLEWVSAILDKGGSTYYAESVKGRFTISRDNAKNTLYLQMSSLRAEDTAVYYCARIVYHAGGGVTFDTRGQGTQVTVSSGGGGSEVQLLESGGGLVQPGGSLRLSCAASGFTVSAEDVGWVRQAPGKGLEWVSAILDKGGSTYYAESVKGRFTISRDNAKNTLYLQMSSLRAEDTAVYYCARIVYHAGGGVTFDTRGQGTQVTVSS
light: B1 light
B5: BE-740 (A-IgG1-BGA-5623) (bispecific antibody)
heavy: not shown
light: B1 light
B6: BE-942 (ZW 1+1) (bispecific antibody, human IgG1, L234A L235A)
heavy: QVQLVQSGAEVKKPGASVKVSCKASGYIFTSYYLHWVRQAPGQGLEWIGYINPQTGKTSYAQKFQGRVTMTRDTSTSTVYMELSSLRSEDTAVYYCAREYGNYNYPLDYWGQGTLVTVSSASTKGPSVFPLAPSSKSTSGGTAWLGCEVTDYFPEPVTVSWNSGALTSGVHTFPAVLESSGLYSLSSVVTVPSSSLGTQTYICNVNHKPSNTKVDKKVEPKSCDKTHTCPPCPAPEAAGGPSVFLFPPKPKDTLMISRTPEVTCVVVSVSHEDPEVKFNWYVDGVEVHNAKTKPREEQYNSTYRVVSVLTVLHQDWLNGKEYKCKVSNKALPAPIEKTISKAKGQPREPQVYVLPPSRDELTKNQVSLLCLVKGFYPSDIAVEWESNGQPENNYLTWPPVLDSDGSFFLYSKLTVDKSRWQQGNVFSCSVMHEALHNHYTQKSLSLSPGK
light: B1 light with F116A, Q124R, L135V, T178R
chain: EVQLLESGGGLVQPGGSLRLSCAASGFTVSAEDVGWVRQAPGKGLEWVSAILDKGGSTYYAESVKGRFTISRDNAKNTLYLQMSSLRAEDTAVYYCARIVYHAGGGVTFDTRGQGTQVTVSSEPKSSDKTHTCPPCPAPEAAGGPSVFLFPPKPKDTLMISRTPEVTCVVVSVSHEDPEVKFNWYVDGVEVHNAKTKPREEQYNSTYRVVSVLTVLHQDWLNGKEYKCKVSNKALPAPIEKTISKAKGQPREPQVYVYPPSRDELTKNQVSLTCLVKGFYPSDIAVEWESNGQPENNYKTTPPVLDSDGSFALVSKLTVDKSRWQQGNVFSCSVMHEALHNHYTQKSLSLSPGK
B7: BE-755 (ZW1+2) (bispecific antibody, human IgG1, L234A L235A)
heavy: B6 heavy
light: B1 light with F116A, Q124R, L135V, T178R
chain: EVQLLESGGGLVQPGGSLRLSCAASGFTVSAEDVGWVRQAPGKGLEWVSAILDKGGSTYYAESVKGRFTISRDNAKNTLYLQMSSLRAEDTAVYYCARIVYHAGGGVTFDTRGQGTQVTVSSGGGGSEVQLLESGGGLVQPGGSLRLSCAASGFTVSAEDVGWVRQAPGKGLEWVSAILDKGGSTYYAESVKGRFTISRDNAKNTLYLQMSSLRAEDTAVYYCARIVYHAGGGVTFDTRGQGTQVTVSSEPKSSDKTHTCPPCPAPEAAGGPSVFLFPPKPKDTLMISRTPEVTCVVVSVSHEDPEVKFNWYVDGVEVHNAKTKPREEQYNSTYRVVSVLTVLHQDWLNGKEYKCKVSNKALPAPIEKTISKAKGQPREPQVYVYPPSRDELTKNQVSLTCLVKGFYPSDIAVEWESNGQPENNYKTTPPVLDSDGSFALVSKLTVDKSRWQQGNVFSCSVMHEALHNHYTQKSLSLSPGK
B8: Format A BGA-5385 (bispecific antibody, human IgG1, kappa)
heavy: QVQLVQSGAEVKKPGASVKVSCKASGYIFTSYYLHWVRQAPGQGLEWIGYINPQTGKTSYAQKFQGRVTMTRDTSTSTVYMELSSLRSEDTAVYYCAREYGNYNYPLDYWGQGTLVTVSSASTKGPSVFPLAPSSKSTSGGTAALGCLVKDYFPEPVTVSWNSGALTSGVHTFPAVLQSSGLYSLSSVVTVPSSSLGTQTYICNVNHKPSNTKVDKKVEPKSCDKTHTCPPCPAPPAAGPSVFLFPPKPKDTLMISRTPEVTCVVVDVSHEDPEVKFNWYVDGVEVHNAKTKPREEQYNSTYRVVSVLTVLHQDWLNGKEYKCKVSNKALAAPIEKTISKAKGQPREPQVYTLPPSREEMTKNQVSLTCLVKGFYPSDIAVEWESNGQPENNYKTTPPVLDSDGSFFLYSKLTVDKSRWQQGNVFSCSVMHEALHNHYTQKSLSLSPGKGGGGSEVQLLESGGGLVQPGGSLRLSCAASGFTLSAEDVGWVRQAPGKGLEWVSAILDHGGSTYYAESVKGRFTISRDNAKNTLYLQMSSLRAEDTAVYYCARVIYHAGGGVTFDTRGQGTQVTVSS
light: B1 light
B9: Format A BGA-7746 (bispecific antibody, human IgG1, kappa)
heavy: B8 heavy with L483V, H508F, I554V
light: B1 light
B10: Format A BGA-7916 (bispecific antibody, human IgG1, kappa)
heavy: B8 heavy with L483V, H508S, I554V, F563Y, T565Y
light: B1 light
B11: Format A BGA-8425 (bispecific antibody, human IgG1, kappa)
heavy: B8 heavy with H508S, I554V, F563Y, T565Y
light: B1 light
B12: Format A BGA-9442 (bispecific antibody, human IgG1, kappa)
heavy: B8 heavy with L483I, H508S, V553Y, I554V, T565L
light: B1 light
B13: Format A BGA-9468 (bispecific antibody, human IgG1, kappa)
heavy: B8 heavy with L483V, H508S, I554V, A557S, T565L
light: B1 light
B14: BGA190 (antibody, V domains shown)
VH: DVQLVESGGGLVQPGGSRELSCAASGFTFSSFGMHWVRQAPERGLEWVAYISIGSDIIYYADTVKGRFTISRDNPKNTLFLQMTSLRSEDTAVYYCTRRSYRSYWYFDVWGAGTTVTVSS
VL: DIQMTQSPASLSASVGETVTITCRTSENIYSYLAWYQQKQGKSPHLLVYNAKTLAEGVPSRFSGSGSGTQFSLKIISLQPEDFGTYYCQHHFLSPWMFGGGTKLEIK
B15: BGA288 (antibody, V domains shown)
VH: EVLLQQSGPELVKPGASVKIFCKASGYTFTDYNIDWVQQSHGKSLEWIGDIGPNYGGTIYNQKFKGKATLTVAKSSSTAYMELRSLTSEDTAVYYCARRGSIPRAVDYWGQGTSVTVSS
VL: DIKMTQSPSSMYASLGERVTITCKASQDIHNYLSWFQQKPGKSPKTLIYRANRLVDGVPSRFSGSGSGQDYSLTISSLEYEDMGIYYCLQYDEFPYTFGGGTKLEIK

target: full-length human CD137 on cells (Hut78/huCD137, HEK293 transfectants, JK-NFKB-CD137) (human, UniProt Q07011 24-255); assay: cell-based or functional assay
Sequence (Q07011 24-255 limits assumed): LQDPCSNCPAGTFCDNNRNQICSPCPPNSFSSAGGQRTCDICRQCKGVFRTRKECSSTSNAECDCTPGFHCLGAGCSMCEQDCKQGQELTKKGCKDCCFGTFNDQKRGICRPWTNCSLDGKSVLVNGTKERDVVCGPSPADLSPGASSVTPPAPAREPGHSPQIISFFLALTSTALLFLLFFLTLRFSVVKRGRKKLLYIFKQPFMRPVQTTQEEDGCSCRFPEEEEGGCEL

Binder | Functional assay EC50 (PBMC cytokine release, in vitro CD137 activation) [µg/mL]
B1 | 4.69
B2 | 1.76
B3 | 0.18
B4 | 0.01
B5 | 0.17
B6 | 25.1
B7 | 1.16

target: T1, human CD137 ECD-mIgG2a (human); assay: SPR, A-CEAxCD137 format
T1 construct: ECD 24-183 of huCD137 fused to mouse IgG2a Fc; also called huCD137-mIgG2a; huCD137
T1 sequence (chain, as listed by the source limits assumed): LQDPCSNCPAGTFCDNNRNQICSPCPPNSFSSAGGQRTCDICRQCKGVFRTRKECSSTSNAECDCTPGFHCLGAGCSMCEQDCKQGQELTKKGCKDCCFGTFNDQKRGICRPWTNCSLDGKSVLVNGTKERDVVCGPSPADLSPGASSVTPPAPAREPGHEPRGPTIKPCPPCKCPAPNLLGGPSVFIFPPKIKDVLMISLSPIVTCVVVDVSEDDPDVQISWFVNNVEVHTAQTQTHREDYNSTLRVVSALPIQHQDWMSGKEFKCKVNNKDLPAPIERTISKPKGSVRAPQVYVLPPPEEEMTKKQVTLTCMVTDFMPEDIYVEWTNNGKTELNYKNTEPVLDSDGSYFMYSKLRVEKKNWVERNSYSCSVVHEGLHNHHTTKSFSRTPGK
Procedure: Characterization of anti-huCD137 VH domain antibodies were made by SPR assays using BIAcore™ T-200 (GE Life Sciences). Briefly, anti-human IgG (Fc) antibody was immobilized on an activated CM5 biosensor chip (Cat.: BR100839, GE Life Sciences). Anti-huCD137 domain antibodies were flowed over the chip surface and captured by anti-human IgG (Fc) antibody. […] The equilibrium dissociation constant (KD) was calculated as the ratio koff/kₒₙ.
Affinity comparison on CD137 affinity matured variants was made by SPR assays using BIAcore™ T-200 (GE Life Sciences) and flow cytometry as described.

Binder | Kd [nM]
B8 | 154
B9 | 245
B10 | 203
B11 | 189
B12 | 164
B13 | 873

target: T2, soluble human CEA, amino acids 1-687 of huCEA with C-terminal 6xHis tag (human, UniProt P06731 35-687); assay: flow cytometry on MKN45 cells, 2 µg/ml antibody, competitor 20 µg/ml recombinant soluble CEA in solution
T2 construct: also called sCEA; soluble huCEA
T2 sequence: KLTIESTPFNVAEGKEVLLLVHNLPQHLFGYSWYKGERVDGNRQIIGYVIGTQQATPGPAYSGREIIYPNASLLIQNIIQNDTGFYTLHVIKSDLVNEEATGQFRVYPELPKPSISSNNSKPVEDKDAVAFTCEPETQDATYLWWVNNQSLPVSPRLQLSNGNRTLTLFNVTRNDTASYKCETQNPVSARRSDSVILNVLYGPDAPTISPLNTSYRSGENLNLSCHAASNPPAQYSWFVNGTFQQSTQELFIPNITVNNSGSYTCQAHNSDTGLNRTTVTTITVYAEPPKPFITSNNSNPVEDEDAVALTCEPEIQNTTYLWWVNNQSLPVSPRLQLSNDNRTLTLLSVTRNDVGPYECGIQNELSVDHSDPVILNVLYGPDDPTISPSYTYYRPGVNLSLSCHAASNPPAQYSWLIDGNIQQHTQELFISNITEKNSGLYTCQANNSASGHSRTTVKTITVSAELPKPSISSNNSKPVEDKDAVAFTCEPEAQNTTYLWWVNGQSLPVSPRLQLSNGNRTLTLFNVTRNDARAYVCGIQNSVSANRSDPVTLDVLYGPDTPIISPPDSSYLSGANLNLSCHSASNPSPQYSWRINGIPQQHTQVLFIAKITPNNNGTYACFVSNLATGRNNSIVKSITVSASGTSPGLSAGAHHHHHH
Procedure: The presence of soluble CEA on the specific binding of various CEA antibodies to CEA expressing cells was evaluated via flow cytometry. […] Cell fluorescence was quantified using a flow cytometer (Guava easyCyte™ 8HT, Merck-Millipore, USA).

Binder | binding result
B14 | binds
B15 | binds
